According to US7588931B2, “High arachidonic acid producing strains of Yarrowia lipolytica” (E. I. du Pont de Nemours and Company, priority 2004, dated 2009):

B1: GPD: Y. lipolytica glyceraldehyde-3-phosphate dehydrogenase promoter, SEQ ID NO:158 (nucleic acid, listed as Yarrowia lipolytica)
DNA: GACGCAGTAGGATGTCCTGCACGGGTCTTTTTGTGGGGTGTGGAGAAAGGGGTGCTTGGAGATGGAAGCCGGTAGAACCGGGCTGCTTGTGCTTGGAGATGGAAGCCGGTAGAACCGGGCTGCTTGGGGGGATTTGGGGCCGCTGGGCTCCAAAGAGGGGTAGGCATTTCGTTGGGGTTACGTAATTGCGGCATTTGGGTCCTGCGCGCATGTCCCATTGGTCAGAATTAGTCCGGATAGGAGACTTATCAGCCAATCACAGCGCCGGATCCACCTGTAGGTTGGGTTGGGTGGGAGCACCCCTCCACAGAGTAGAGTCAAACAGCAGCAGCAACATGATAGTTGGGGGTGTGCGTGTTAAAGGAAAAAAAAGAAGCTTGGGTTATATTCCCGCTCTATTTAGAGGTTGCGGGATAGACGCCGACGGAGGGCAATGGCGCCATGGAACCTTGCGGATATCGATACGCCGCGGCGGACTGCGTCCGAACCAGCTCCAGCAGCGTTTTTTCCGGGCCATTGAGCCGACTGCGACCCCGCCAACGTGTCTTGGCCCACGCACTCATGTCATGTTGGTGTTGGGAGGCCACTTTTTAAGTAGCACAAGGCACCTAGCTCGCAGCAAGGTGTCCGAACCAAAGAAGCGGCTGCAGTGGTGCAAACGGGGCGGAAACGGCGGGAAAAAGCCACGGGGGCACGAATTGAGGCACGCCCTCGAATTTGAGACGAGTCACGGCCCCATTCGCCCGCGCAATGGCTCGCCAACGCCCGGTCTTTTGCACCACATCAGGTTACCCCAAGCCAAACCTTTGTGTTAAAAAGCTTAACATATTATACCGAACGTAGGTTTGGGCGGGCTTGCTCCGTCTGTCCAAGGCAACATTTATATAAGGGTCTGCATCGCCGGCTCAATTGAATCTTTTTTCTTCTTCTCTTCTCTATATTCATTCTTGAATTAAACACACATCAACATG
modifications: misc_feature: Promoter GPD
B2: GPDIN: glyceraldehyde-3-phosphate dehydrogenase + intron promoter, SEQ ID NO:159 (nucleic acid, listed as Yarrowia lipolytica)
DNA: AAACACGCAGTAGGATGTCCTGCACGGGTCTTTTTGTGGGGTGTGGAGAAAGGGGTGCTTGGAGATGGAAGCCGGTAGAACCGGGCTGCTTGTGCTTGGAGATGGAAGCCGGTAGAACCGGGCTGCTTGGGGGGATTTGGGGCCGCTGGGCTCCAAAGAGGGGTAGGCATTTCGTTGGGGTTACGTAATTGCGGCATTTGGGTCCTGCGCGCATGTCCCATTGGTCAGAATTAGTCCGGATAGGAGACTTATCAGCCAATCACAGCGCCGGATCCACCTGTAGGTTGGGTTGGGTGGGAGCACCCCTCCACAGAGTAGAGTCAAACAGCAGCAGCAACATGATAGTTGGGGGTGTGCGTGTTAAAGGAAAAAAAAGAAGCTTGGGTTATATTCCCGCTCTATTTAGAGGTTGCGGGATAGACGCCGACGGAGGGCAATGGCGCTATGGAACCTTGCGGATATCCATACGCCGCGGCGGACTGCGTCCGAACCAGCTCCAGCAGCGTTTTTTCCGGGCCATTGAGCCGACTGCGACCCCGCCAACGTGTCTTGGCCCACGCACTCATGTCATGTTGGTGTTGGGAGGCCACTTTTTAAGTAGCACAAGGCACCTAGCTCGCAGCAAGGTGTCCGAACCAAAGAAGCGGCTGCAGTGGTGCAAACGGGGCGGAAACGGCGGGAAAAAGCCACGGGGGCACGAATTGAGGCACGCCCTCGAATTTGAGACGAGTCACGGCCCCATTCGCCCGCGCAATGGCTCGCCAACGCCCGGTCTTTTGCACCACATCAGGTTACCCCAAGCCAAACCTTTGTGTTAAAAAGCTTAACATATTATACCGAACGTAGGTTTGGGCGGGCTTGCTCCGTCTGTCCAAGGCAACATTTATATAAGGGTCTGCATCGCCGGCTCAATTGAATCTTTTTTCTTCTTCTCTTCTCTATATTCATTCTTGAATTAAACACACATCAACATGGCCATCAAAGTCGGTATTAACGGATTCGGGCGAATCGGACGAATTGTGAGTACCATAGAAGGTGATGGAAACATGACCCAACAGAAACAGATGACAAGTGTCATCGACCCACCAGAGCCCAATTGAGCTCATACTAACAGTCGACAACCTGTCGAACCAATTGATGACTCCCCGACAATGTACTAACACAGGTCCTGCCC
modifications: misc_feature: Promoter GPDIN

Experiments:
Type in all cases: cell-based, Yarrowia lipolytica
[1] = system: β-glucuronidase (GUS) reporter; assay: Comparative analysis of promoters by histochemical analysis of GUS expression; details: ATCC #76982 strains, MM, FIG. 5B
Method: Comparative studies investigating the promoter activities of the TEF, GPD, GPDIN, GPM, GPAT, FBA, FBAIN and YAT1 promoters were performed, by synthesizing constructs comprising each promoter and the E. coli gene encoding β-glucuronidase (GUS) as a reporter gene (Jefferson, R. A. Nature. 14(342):837-838 (1989)). Then, GUS activity was measured by histochemical and fluorometric assays (Jefferson, R. A. Plant Mol. Biol. Reporter 5:387-405 (1987)) and/or by using Real Time PCR for mRNA quantitation.
Yarrowia lipolytica ATCC #76982 strains containing plasmids pY5-30, pYZGDG, pYZGMG, pDMW212 and pDMW214 were grown from single colonies in 3 mL MM at 30° C. to an OD600˜1.0. Then, 100 μl of cells were collected by centrifugation, resuspended in 100 μl of histochemical staining buffer, and incubated at 30° C. Staining buffer was prepared by dissolving 5 mg of 5-bromo-4-chloro-3-indolyl glucuronide (X-Gluc) in 50 μl dimethyl formamide, followed by the addition of 5 mL 50 mM NaPO4, pH 7.0.
In a separate experiment, Y. lipolytica Y2034 strains containing plasmids pY5-30, pYGPAT-GUS, pYAT-GUS and pDMW214 were grown from single colonies in 5 mL SD media at 30° C. for 24 hrs to an OD600˜8.0. Then, 1 mL of cells were collected by centrifugation. The remaining cultures were centrifuged and washed 2× with HGM, resuspended in 5 mL each of HGM and allowed to grow at 30° C. further. After 24 and 120 hrs, ˜0.25 mL of each culture were centrifuged to collect the cells. Cell samples were resuspended individually in 100 μl of histochemical staining buffer (supra). Zymolase 20T (5 μl of 1 mg/mL; ICN Biomedicals, Costa Mesa, Calif.) was added to each, and the mixture incubated at 30° C. […]

GUS mRNA = assay: Comparative analysis of promoters by quantitative (Real Time) PCR of GUS mRNA; details: for transcription activity relative to the TEF promoter: after 24 hrs in HGM, ATCC #76982 strains
Method: The transcriptional activities of the TEF, GPD, GPDIN, FBA and FBAIN promoters were determined in Y. lipolytica containing the pY5-30, PYZGDG, pDMW222, pDMW212 and pDMW214 constructs by quantitative PCR analyses. This required isolation of RNA and real time RT-PCR.
More specifically, Y. lipolytica ATCC #76982 strains containing pY5-30, PYZGDG, pDMW222, pDMW212 and pDMW214 were grown from single colonies in 6 mL of MM in 25 mL Erlenmeyer flasks for 16 hrs at 30° C. Each of the 6 mL starter cultures was then added to individual 500 mL flasks containing 140 mL HGM and incubated at 30° C. for 4 days. In each interval of 24 hrs, 1 mL of each culture was removed from each flask to measure the optical density, 27 mL was removed and used for a fluorometric GUS assay (as described above), and two aliquots of 1.5 mL were removed for RNA isolation. The culture for RNA isolation was centrifuged to produce a cell pellet.
The RNA was isolated from Yarrowia strains according to the modified Qiagen RNeasy mini protocol (Qiagen, San Diego, Calif.). Briefly, at each time point for each sample, 340 μL of Qiagen's buffer RLT was used to resuspend each of the two cell pellets. The buffer RLT/cell suspension mixture from each of the two tubes was combined in a bead beating tube (Bio101, San Diego, Calif.). About 500 μL of […] glass beads was added to the tube and the cells were disrupted by bead beating 2 min at setting 5 (BioPulverizer, Bio101 Company, San Diego, Calif.). The disrupted cells were then pelleted by centrifugation at 14,000 rpm for 1 min and 350 μl of the supernatent was transferred to a new microcentrifuge tube. Ethanol (350 μL of 70%) was added to each homogenized lysate. After gentle mixing, the entire sample was added to a RNeasy mini column in a 2 mL collection tube. The sample was centrifuged for 15 sec at 10,000 rpm. Buffer RW1 (350 μL) was added to the RNeasy mini column and the column was centrifuged for 15 sec at 10,000 rpm to wash the cells. The eluate was discarded. Qiagen's DNasel stock solution (10 μL) was added to 70 μl of Buffer RDD and gently mixed. This entire DNase solution was added to the RNeasy mini column and incubated at room temperature for 15 min. After the incubation step, 350 μL of Buffer RW1 was added to the mini column and the column was centrifuged for 15 sec at 10,000 rpm. The column was washed twice with 700 μL […]. RNase-free water (50 μL) was added to the column. The column was centrifuged for 1 min at 10,000 rpm to elute the RNA.
A two-step RT-PCR protocol was used, wherein total Yarrowia RNA was first converted to cDNA and then cDNA was analyzed using Real Time PCR. The conversion to cDNA was performed using Applied Biosystems' High Capacity cDNA Archive Kit (PN#4322171; Foster City, Calif.) and Molecular Biology Grade water from MediaTech, Inc. (PN# 46-000-Con; Holly Hill, Fla.). Total RNA from Yarrowia (100 ng) was converted to cDNA by combining it with 10 μl of RT buffer, 4 μl of 25×dNTPs, 10 μl 10× Random Hexamer primers, 5 μl Multiscribe Reverse Transcriptase and 0.005 μl RNase Inhibitor, and brought to a total reaction volume of 100 μl with water. The reactions were incubated in a thermocycler for 10 min at 25° C. followed by 2 hrs at 37° C. The cDNA was stored at −20° C. prior to Real Time analysis.
Real Time analysis was performed using the SYBR Green PCR Master Mix from Applied Biosystems (PN# 4309155). The Reverse Transcription reaction (2 μl) was added to 10 μl of 2×SYBR PCR Mix, 0.2 μl of 100 μM Forward and Reverse primers for either URA (i.e., primers YL-URA-16F and YL-URA-78R [SEQ ID NOs:183 and 184]) or GUS (i.e., primers GUS-767F and GUS-891R [SEQ ID NO:185 and 186]) and 7.2 μl water. The reactions were thermocycled for 10 min at 95° C. followed by 40 cycles of 95° C. for 5 sec and 60° C. for 1 min in an ABI 7900 Sequence Detection System instrument. Real time fluorescence data was collected during the 60° C. extension during each cycle. […]

[2] = system: β-glucuronidase (GUS) reporter; assay: Relative promoter activity rank from comparative GUS reporter studies (histochemical, fluorometric and/or Real Time PCR); details: relative to other promoters
Method: The activity of GPM is about the same as TEF, while the activity of GPD, FBA, FBAIN, FBAINm, GPDIN, GPAT, YAT1 and EXP1 are all greater than TEF (activity is quantified in a relative manner in the column titled “Activity Rank”, wherein a ‘1’ corresponds to the promoter with lowest activity, while a ‘7’ corresponds to the promoter with highest activity). […] GUS activity in each expressed construct was measured by histochemical and/or fluorometric assays (Jefferson, R. A. Plant Mol. Biol. Reporter 5:387-405 (1987)) and/or by use of Real Time PCR.

Molecule | promoter activity by histochemical staining [1] | transcription activity relative to the TEF promoter (GUS mRNA) | Activity “Rank” [2] | transcriptional activity relative to the TEF promoter (GUS mRNA; final day of the 4 day experiment in HGM) [times]
B1 | active | about 2 times | 2 | 
B2 |  | ~4.4 times | 3 | ~2.6
